In publication PMC5397175, “Binding site density enables paralog-specific activity of SLM2 and Sam68 proteins in Neurexin2 AS4 splicing control” one finds Kd data, which are given here for two molecules.

The target of one data set is Sam68 STAR domain (UniProt Q07666 97-283). Put plainly: fluorescence polarization; FP buffer, salt, pH and temperature not given in the material; SD from three independent experiments. Conditions: protein: recombinant; chain copies: 2; label: 5' fluorescein.
In data set [1] the target is T1, SLM2 (T-STAR) STAR domain (UniProt O75525 1-183).
T1 sequence: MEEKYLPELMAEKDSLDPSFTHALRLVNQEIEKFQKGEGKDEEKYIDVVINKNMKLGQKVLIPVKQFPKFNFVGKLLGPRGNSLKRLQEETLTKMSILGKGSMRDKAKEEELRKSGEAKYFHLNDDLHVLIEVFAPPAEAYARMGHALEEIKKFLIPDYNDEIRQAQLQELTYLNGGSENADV
The description is as above. Conditions: protein: recombinant; chain copies: 2; label: 5' fluorescein.

Where a chain is given by its changes, count along the chain named.

Sequence of Sam68 STAR domain (Q07666 97-283): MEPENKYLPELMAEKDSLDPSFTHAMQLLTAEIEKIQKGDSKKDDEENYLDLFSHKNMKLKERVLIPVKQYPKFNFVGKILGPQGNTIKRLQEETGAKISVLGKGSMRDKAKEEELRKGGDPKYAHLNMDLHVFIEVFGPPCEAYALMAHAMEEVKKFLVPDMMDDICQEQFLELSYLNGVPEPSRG

B1: Nrxn2 WT (ssRNA)
RNA: CCCAAUUAAUUAAUUAAUUAACUAACUAACUAACUUUAAAAACACGAUCUUAAA
As usually defined, the Kd is the constant that tells how readily two partners part at equilibrium. Consider B1, for which the Kd is 2.9 ± 0.3 µM in the data set with Sam68 STAR domain and 5.9 ± 0.9 µM in data set [1].

B2: Nrxn2 mutant 7 (ssRNA)
RNA: B1 RNA with U27C, A28C, U31C, A32C, U35C, U36C
With B2, the Kd in the data set with Sam68 STAR domain is 3.4 ± 0.3 µM; in data set [1], 3.9 ± 0.4 µM.
